The test system of one series is female mouse. As to conditions: Zhao Guoqiang et al., 1984; cited from earlier work.
The test system of series [1] is ITP model mice. The series is classed as in vivo, BALB/C mice. To be noted: 5 mg/(kg·d) intragastric, 14 days; end of experiment. The source says: (§1) Health BALB/C mice (body weight 18˜22 g) are randomly divided into six groups with 12 mice for each group:
Blank group, Model group, Prednisone Acetate Group, Dencichine (high dose, middle dose, and low dose) groups.
Modeling method: blood was taken from orbital vein of BALB/C Mice, followed by EDTA-Na2 Anticoagulation, and then platelets are separated and washed. The prepared platelet suspension solution was mixed uniformly with equal amount of complete Freund's adjuvant and incomplete Freund's adjuvant respectively. In the first week, antigen containing complete Freund's adjuvant is subcutaneously injected into hind paw, back and groin of the guinea pig. Injections are done for 4 times in total, with 5 spots for each injection and 100 μl for each spot. In the 6th week, non-anticoagulated whole blood was taken from the guinea pigs, and was centrifuged for 10 min under 3000 r/min to produce a supernate, which is the anti-mouse platelet serum (GP-APS) of the guinea pigs. The supernate was placed in a water bath (56° C.) for 30 min for complement inactivation, and then the inactivated supernate was diluted with normal saline, followed by test of antibody titers by agar diffusion method, and finally was stored in a refrigerator at −20° C. for later use.
(§2) Except the normal group, the mice of the remain five groups are injected with anti-mouse platelet serum (APS) of the guinea pig with a dose of 100 μl/20 g body weight, via intraperitoneal injection, on the 1st, 3rd, 5th, 7th, 9th, 11th and 13th day of the experiment.
(§3) The mice of each group are given intragastric administration from the first day. […] The mice of the prednisone acetate group are given intragastric administration of suspension of prednisone acetate at 5 mg/(kg·d). The mice of other groups are given intragastric administration of same volumetric of normal saline at 0.2 ml/20 g body weight. Intragastric administration for once each day, and continuous administration for 14 days.
Observation of the Subcutaneous Purpura:
Class I, minor bleeding are found at injection sites, and hemorrhagic spots are interspersed at other sites;
Class II, overt bleeding are found at injection sites, and ecchymosis and petechiae are found at other sites;

The format of series [2] is in vivo, BALB/C mice. To be noted: 5 mg/(kg·d) intragastric. The method, then: as §1, §2, §3
The weights of mice of each group are respectively measured before modeling, on 7th test day, and on 14th test day.

For series [3], the system named is ITP model mice. The series is classed as in vivo, BALB/C mice. To be noted: 5 mg/kg intragastric. The method, then: as §1, §2
The mice of each group are given intragastric administration from the first day. The mice of the dencichine high dose, middle-dose and low dose groups are given intragastric administration at […] respectively. The mice of the prednisone acetate group are given intragastric administration of suspension of prednisone acetate at 5 mg/(kg·d). The mice of other groups are given intragastric administration of same volumetric of normal saline at 0.2 ml/20 g body weight. Intragastric administration for once each day, and continuous administration for 14 days.
20 μl Blood was collected from orbital veins of each mouse of each group before Modeling and on 14th test day respectively, and dropped into anticoagulative tubes, then platelet count was detected by an automated blood analyzers.

For series [4], the system named is rats with thrombocytopenia caused by carboplatin. Kind of series: Platelet count of rats with thrombocytopenia caused by carboplatin, different prophylactic administration time. Type of series: in vivo, rat.
The subject of series [5] is rats suffering thrombopenia induced by carboplatin. Kind of series: Platelet count of rats suffering thrombopenia induced by multiple injections of carboplatin. The series is classed as in vivo, Wistar rats. To be noted: 260 μg/kg s.c., carboplatin model. The method, then:
(§4) 81 rats are prepared and randomly divided into eight groups: • blank control group, • high-dose group A (4 mg/kg, intraperitoneal injection, non modeling), • model group (40 mg/kg, tail vein injection), • interleukin-11 group (260 μg/kg, subcutaneous injection), • high dose group B (4 mg/kg, intraperitoneal injection, modeling), • high dose group (4 mg/kg, intraperitoneal injection), • middle dose group (1 mg/kg, intraperitoneal injection), and • low dose group (0.25 mg/kg, intraperitoneal injection),
(§5) wherein, the Model group has 11 rats, and the other groups has 10 rats respectively. Before the experiment, the animals are asked to adapt the environment for 2 days, and then blood is taken from their tails for detecting hematological index.
(§6) After administration for 10 days, blood is taken from tails of rats from blank control group, high-dose group A, and positive drug group respectively for detecting hematological index.
(§7) Thereafter, all animals, except for those of blank group and high-dose group A, are individually injected with carboplatin (40 mg/kg) for modeling, and followed by successive administration for 15 days. During these 15 days, the rats of high-dose group A and high dose group B are stopped from administration, and taken blood from the tail on 5th day, 10th day and 15th day after the modeling respectively for detecting hematological indices. After 15th day of modeling, carboplatin (40 mg/kg) is injected again for a second modeling, and all the groups take successive administration according to the foregoing method, once a day for successive 10 days. Before each hematological indices detection, animals are weighed respectively. Taking the tails' blood of rats on 5th day after the second injection of carboplatin for detecting hematological indices, and taking the tails' blood of rats on 10th day after the second injection of carboplatin for detecting the indices of hematology, reticulocytes and coagulation; and weighing animals and killing them; and weighing liver, thymus, spleen and adrenal gland taken from the dead rats, and calculating out viscera indices; further taking out marrow for doing pathological examination.

A short description of series [6]: Body weight of rats suffering thrombopenia induced by carboplatin. Type of series: in vivo, Wistar rats. To be noted: for body weight: 260 μg/kg s.c., carboplatin model. The method, then: as §4, §5, §6, §7
Series [7] in a line: Organ index of rats suffering thrombopenia induced by carboplatin. Type of series: in vivo, Wistar rats. The method, then: as §4, §7
Setting [8] is: 5th day after first injection of carboplatin.
The mark [9] stands for this setting: 5th day after second injection of carboplatin.
[10] abbreviates: 10th day after first injection of carboplatin.
[11] abbreviates: 10th day after second injection of carboplatin.
The mark [12] stands for this setting: 15th day after first injection of carboplatin.
Where [13] appears, read: prophylactic administration for 10 days.
Where [14] appears, read: 260 μg/kg s.c., carboplatin model.

Where two headings read alike, the source gives them in different places.

Regarding `N[C@H](CNC(=O)C(=O)O)C(=O)O` [β-N-oxalyl-D-α, β-diaminopropionic acid, reference compound], the “effect on the hemostasis and increase of platelet count” value in the series on female mouse is on record as “significant effect”.
Regarding `CC(=O)OCC(=O)[C@@]1(O)CC[C@H]2[C@@H]3CCC4=CC(=O)C=C[C@]4(C)[C@H]3C(=O)C[C@@]21C` [Prednisone acetate, Prednisone Acetate, reference compound], in the series on ITP model mice [1], the “Subcutaneous purpura, bleeding degree +” value is reported as 6 number of mice; the “Subcutaneous purpura, bleeding degree ++” value is recorded as 2 number of mice; the “Subcutaneous purpura, bleeding degree +++” value is 0 number of mice; the “Subcutaneous purpura, bleeding degree −” value is given as 0 number of mice. In series [2] (Day 0), the body weight was 19.8 ± 2.1 g. The same molecule yielded a body weight in series [2] (Day 7) of 19.5 ± 1.8 g. The same molecule showed a body weight in series [2] (Day 14) of 20.6 ± 1.7 g. Moreover, the platelet count in the series on ITP model mice [3] (Before Modeling) was 756.9 ± 130.1 ×10^9/L. In addition, the platelet count with ITP model mice [3] (Day 14) is given as 579.0 ± 70.7 ×10^9/L.

B1: Interleukin-11: Recombinant human interleukin-11 for injection, sterile lyophilized preparation, Qilu Pharmaceutical; positive drug (protein, UniProt P20809 22-199, looked up)
Interleukin-11: PGPPPGPPRVSPDPRAELDSTVLLTRSLLADTRQLAAQLRDKFPADGDHNLDSLPTLAMSAGALGALQLPGVLTRLRADLLSYLRHVQWLRRAGGSSLKTLEPELGTLQARLDRLLRRLQLLMSRLALPQPPPDPPAPPLAPPSSAWGGIRAAHAILGGLHLTLDWAVRGLLLLKTRL
As for B1, the “platelet count compared with that of model group” value in series [4] (prophylactic administration for 3 days) was “no significant difference”; in series [4] (prophylactic administration for 5 days and 7 days), “increase the platelet count”. The platelet count in series [4] (prophylactic administration for 3 days, after prophylactic administration) was 820.7 ± 155.13 ×10^9/L; in series [4] (prophylactic administration for 3 days, initial value), 736.3 ± 175.56 ×10^9/L; in series [4] (prophylactic administration for 3 days, injection of carboplatin for 10 days), 88.5 ± 51.49 ×10^9/L; in series [4] (prophylactic administration for 5 days, after prophylactic administration), 759.5 ± 145.34 ×10^9/L; in series [4] (prophylactic administration for 5 days, initial value) it was 724.0 ± 178.87 ×10^9/L; in series [4] (prophylactic administration for 5 days, injection of carboplatin for 10 days), 178.3 ± 57.08 ×10^9/L. Further, the platelet count in series [4] (prophylactic administration for 7 days, after prophylactic administration) is 860.5 ± 113.92 ×10^9/L; in series [4] (prophylactic administration for 7 days, initial value), 732.3 ± 197.06 ×10^9/L; in series [4] (prophylactic administration for 7 days, injection of carboplatin for 10 days), 179.5 ± 26.76 ×10^9/L; in series [5] (setting [8]), 564.0 ± 126.1 ×10^9/L; in series [5] (setting [9]), 953.7 ± 265.8 ×10^9/L; in series [5] (setting [10]), 234.6 ± 77.9 ×10^9/L. For the same molecule, the platelet count in series [5] (setting [11]) was 290.7 ± 180.9 ×10^9/L; in series [5] (setting [12]), 1183.3 ± 92.5 ×10^9/L; in series [5] (before experiment), 625.4 ± 124.92 ×10^9/L; in series [5] (setting [13]), 761.6 ± 226.76 ×10^9/L. The body weight in series [6] (setting [8]) was 267.6 ± 41.79 g; in series [6] (setting [9]) it was 294.6 ± 47.61 g; in series [6] (setting [10]), 287.1 ± 41.57 g; in series [6] (setting [11]) it was 291.7 ± 52.46 g; in series [6] (setting [12]) it was 298.3 ± 44.22 g; in series [6] (before experiment), 186.7 ± 9.63 g. The body weight in series [6] (setting [13]) turned out to be 268.8 ± 32.65 g. For the same molecule, in series [6] (280 μg/kg subcutaneous injection, beginning of the experiment), the “body weight and state” value is on record as “obvious body weight loss”. The “organ index, Adrenal gland” value in series [7] (setting [14]) came to 0.04 ± 0.01 g/100 g body weight. Besides, the “organ index, Liver” value in series [7] (setting [14]) was 4.10 ± 0.30 g/100 g body weight. Also, the “organ index, Spleen” value in series [7] (setting [14]) stood at 0.39 ± 0.05 g/100 g body weight. Also, the “organ index, Thymus gland” value in series [7] (setting [14]) worked out at 0.14 ± 0.05 g/100 g body weight. Also, the “index of livers, spleens, suprarenal glands compared with the blank control group” value in series [7] (interleukin-11 group) is recorded as “obvious increases”.

Values taken from patent publication US9526713B2, “Use of dencichine in preparation of drug for treating thrombocytopenia” (KUNMING SHENGHUO PHARMACEUTICAL (GROUP) CO., LTD., priority 2013, dated 2016).
